This note sets out measurements from article PMC10019453, “Integrative structural analysis of the type III secretion system needle complex from Shigella flexneri” (Protein Science : A Publication of the Protein Society, 2023).

In this assay the target is T1, MxiD[SctC] (Shigella flexneri, UniProt Q04641 23-566).
T1 construct: the last 18 residues (S549-Y566) are not resolved; 16 subunits in the connector (N0, N1), 15 in the OM ring (N3, secretin, S domain); also called secretin; OM ring
T1 sequence: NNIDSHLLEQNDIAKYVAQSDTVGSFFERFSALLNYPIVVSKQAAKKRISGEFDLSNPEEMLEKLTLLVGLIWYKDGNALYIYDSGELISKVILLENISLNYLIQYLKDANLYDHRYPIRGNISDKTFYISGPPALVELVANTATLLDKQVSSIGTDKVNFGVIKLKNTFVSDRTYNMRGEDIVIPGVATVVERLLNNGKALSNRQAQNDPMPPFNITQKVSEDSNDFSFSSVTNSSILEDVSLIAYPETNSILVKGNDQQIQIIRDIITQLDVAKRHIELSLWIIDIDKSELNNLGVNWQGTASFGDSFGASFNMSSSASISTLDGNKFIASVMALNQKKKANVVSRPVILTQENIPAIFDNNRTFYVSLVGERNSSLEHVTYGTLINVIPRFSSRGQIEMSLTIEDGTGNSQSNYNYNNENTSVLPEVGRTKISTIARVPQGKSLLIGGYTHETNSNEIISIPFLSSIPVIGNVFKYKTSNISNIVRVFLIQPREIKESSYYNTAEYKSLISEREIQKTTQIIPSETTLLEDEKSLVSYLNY
Description: cross-linking; BS3 cross-linking mass spectrometry of the isolated needle complex; 0.2-0.3 mM BS3, 30 min, room temperature; 2% FDR at residue-pair level. The conditions noted are these: both partners purified.

B1: MxiM[SctG] (natural protein)
chain: CALKSSSNSEKEWHIVPVSKDYFSIPNDLLWSFNTTNKSINVYSKCISGKAVYSFNAGKFMGNFNVKEVDGCFMDAQKIAIDKLFSMLKDGVVLKGNKINDTILIEKDGEVKLKLIRGI
modifications: lipidated N-terminus
notes: MxiM[SctG], pilotin of the Shigella flexneri T3SS; also called pilotin; pilot protein
Take B1: the binding result is “binds”.
